Tested on: Escherichia coli TOP10
Assay: shrunken log2 fold change of peptide-encoding DNA abundance (4.5 h post-induction vs induction); higher = less antimicrobial activity (less host growth inhibition)
Conditions: time post-induction: 4.5 h; library: site-saturation at positions 5, 18, 19, 20
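Note: peptides expressed intracellularly from a pBAD plasmid library in pooled LB shake-flask culture, induced with 0.3% L-arabinose, DNA abundance read by NGS, three biological replicates, DESeq2 with apeglm shrinkage.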

Row | Sequence | shrunken log2 fold change
1 | RRIRQRPPRLPRPRPRPFNPPRP | -0.077
2 | RRIRQRPPRLPRPRPRPFQFPRP | -0.252
3 | RRIRQRPPRLPRPRPRPFQYPRP | -0.306
4 | RRIRQRPPRLPRPRPRPFSYPRP | -0.0227
5 | RRIRQRPPRLPRPRPRPFVEPRP | -0.152
6 | RRIRQRPPRLPRPRPRPFVRPRP | -0.0842
7 | RRIRQRPPRLPRPRPRPGAVPRP | 0.274
8 | RRIRQRPPRLPRPRPRPGCAPRP | 0.507
9 | RRIRQRPPRLPRPRPRPGCRPRP | 0.342
10 | RRIRQRPPRLPRPRPRPGEPPRP | -0.00996
11 | RRIRQRPPRLPRPRPRPGESPRP | 0.0357
12 | RRIRQRPPRLPRPRPRPGHLPRP | -0.0699
13 | RRIRQRPPRLPRPRPRPGKHPRP | 0.0941
14 | RRIRQRPPRLPRPRPRPGLQPRP | -0.0156
15 | RRIRQRPPRLPRPRPRPGMGPRP | 0.33
16 | RRIRQRPPRLPRPRPRPGMHPRP | -0.0509
17 | RRIRQRPPRLPRPRPRPGPAPRP | 0.114
18 | RRIRQRPPRLPRPRPRPGPDPRP | 0.163
19 | RRIRQRPPRLPRPRPRPGPTPRP | 0.0273
20 | RRIRQRPPRLPRPRPRPGQLPRP | -0.0292
21 | RRIRQRPPRLPRPRPRPGQTPRP | 0.00514
22 | RRIRQRPPRLPRPRPRPGQYPRP | -0.156
23 | RRIRQRPPRLPRPRPRPGRKPRP | 0.249
24 | RRIRQRPPRLPRPRPRPGRSPRP | 0.105
25 | RRIRQRPPRLPRPRPRPGVTPRP | 0.0644

Row | Sequence | shrunken log2 fold change
26 | RRIRQRPPRLPRPRPRPGWQPRP | -0.00211
27 | RRIRQRPPRLPRPRPRPGYKPRP | -0.0992
28 | RRIRQRPPRLPRPRPRPHCCPRP | -0.0421
29 | RRIRQRPPRLPRPRPRPHCLPRP | 0.0735
30 | RRIRQRPPRLPRPRPRPHDPPRP | 0.142
31 | RRIRQRPPRLPRPRPRPHEFPRP | -0.287
32 | RRIRQRPPRLPRPRPRPHEGPRP | -0.0113
33 | RRIRQRPPRLPRPRPRPHEIPRP | -0.0149
34 | RRIRQRPPRLPRPRPRPHEPPRP | -0.00369
35 | RRIRQRPPRLPRPRPRPHESPRP | -0.126
36 | RRIRQRPPRLPRPRPRPHFHPRP | -0.396
37 | RRIRQRPPRLPRPRPRPHFSPRP | -0.508
38 | RRIRQRPPRLPRPRPRPHGMPRP | 0.0346
39 | RRIRQRPPRLPRPRPRPHHIPRP | -0.764
40 | RRIRQRPPRLPRPRPRPHKFPRP | -0.279
41 | RRIRQRPPRLPRPRPRPHLVPRP | 0.00244
42 | RRIRQRPPRLPRPRPRPHNFPRP | -0.154
43 | RRIRQRPPRLPRPRPRPHPPPRP | 0.667
44 | RRIRQRPPRLPRPRPRPHREPRP | -0.152
45 | RRIRQRPPRLPRPRPRPHRIPRP | -0.0425
46 | RRIRQRPPRLPRPRPRPHSTPRP | -0.149
47 | RRIRQRPPRLPRPRPRPHTDPRP | -0.228
48 | RRIRQRPPRLPRPRPRPHTLPRP | -0.263
49 | RRIRQRPPRLPRPRPRPHVLPRP | 0.0625
50 | RRIRQRPPRLPRPRPRPHWRPRP | -0.374

Row | Sequence | shrunken log2 fold change
51 | RRIRQRPPRLPRPRPRPHYHPRP | -0.127
52 | RRIRQRPPRLPRPRPRPHYKPRP | -1.18
53 | RRIRQRPPRLPRPRPRPHYMPRP | -0.474
54 | RRIRQRPPRLPRPRPRPHYPPRP | -0.219
55 | RRIRQRPPRLPRPRPRPIAIPRP | 0.00329
56 | RRIRQRPPRLPRPRPRPICGPRP | -0.0167
57 | RRIRQRPPRLPRPRPRPICIPRP | -0.0334
58 | RRIRQRPPRLPRPRPRPIDHPRP | -0.0445
59 | RRIRQRPPRLPRPRPRPIECPRP | -0.0217
60 | RRIRQRPPRLPRPRPRPIFPPRP | 0.122
61 | RRIRQRPPRLPRPRPRPIHVPRP | -0.15
62 | RRIRQRPPRLPRPRPRPIHYPRP | 0.0133
63 | RRIRQRPPRLPRPRPRPILQPRP | 0.292
64 | RRIRQRPPRLPRPRPRPILVPRP | -0.0138
65 | RRIRQRPPRLPRPRPRPIMHPRP | -0.172
66 | RRIRQRPPRLPRPRPRPIMQPRP | -0.0377
67 | RRIRQRPPRLPRPRPRPINNPRP | -0.803
68 | RRIRQRPPRLPRPRPRPIPMPRP | -0.639
69 | RRIRQRPPRLPRPRPRPIPYPRP | -0.0122
70 | RRIRQRPPRLPRPRPRPIRAPRP | 0.0231
71 | RRIRQRPPRLPRPRPRPISHPRP | -0.421
72 | RRIRQRPPRLPRPRPRPISSPRP | 0.00776
73 | RRIRQRPPRLPRPRPRPITIPRP | -0.239
74 | RRIRQRPPRLPRPRPRPITNPRP | -0.158
75 | RRIRQRPPRLPRPRPRPIVCPRP | -0.137

Row | Sequence | shrunken log2 fold change
76 | RRIRQRPPRLPRPRPRPIVDPRP | 0.0252
77 | RRIRQRPPRLPRPRPRPIWVPRP | -0.344
78 | RRIRQRPPRLPRPRPRPIYMPRP | -0.113
79 | RRIRQRPPRLPRPRPRPIYNPRP | -0.478
80 | RRIRQRPPRLPRPRPRPKAIPRP | 0.0432
81 | RRIRQRPPRLPRPRPRPKDYPRP | -0.756
82 | RRIRQRPPRLPRPRPRPKFVPRP | -0.105
83 | RRIRQRPPRLPRPRPRPKGEPRP | -0.031
84 | RRIRQRPPRLPRPRPRPKGTPRP | 0.109
85 | RRIRQRPPRLPRPRPRPKHHPRP | -0.391
86 | RRIRQRPPRLPRPRPRPKIRPRP | 0.00599
87 | RRIRQRPPRLPRPRPRPKLFPRP | -0.0707
88 | RRIRQRPPRLPRPRPRPKLTPRP | -0.0707
89 | RRIRQRPPRLPRPRPRPKNVPRP | 0.225
90 | RRIRQRPPRLPRPRPRPKQIPRP | -0.103
91 | RRIRQRPPRLPRPRPRPKRDPRP | 0.114
92 | RRIRQRPPRLPRPRPRPKRKPRP | 0.684
93 | RRIRQRPPRLPRPRPRPKRLPRP | 0.281
94 | RRIRQRPPRLPRPRPRPKSIPRP | -0.695
95 | RRIRQRPPRLPRPRPRPKSMPRP | -0.179
96 | RRIRQRPPRLPRPRPRPKTTPRP | -0.636
97 | RRIRQRPPRLPRPRPRPKVEPRP | -0.00957
98 | RRIRQRPPRLPRPRPRPKVKPRP | -0.223
99 | RRIRQRPPRLPRPRPRPKVMPRP | -0.0261
100 | RRIRQRPPRLPRPRPRPKWTPRP | -0.164

Row | Sequence | shrunken log2 fold change
101 | RRIRQRPPRLPRPRPRPKYLPRP | -0.0386
102 | RRIRQRPPRLPRPRPRPLAVPRP | 0.0758
103 | RRIRQRPPRLPRPRPRPLCDPRP | -0.131
104 | RRIRQRPPRLPRPRPRPLDAPRP | 0.109
105 | RRIRQRPPRLPRPRPRPLDFPRP | -0.0491
106 | RRIRQRPPRLPRPRPRPLFPPRP | 0.0501
107 | RRIRQRPPRLPRPRPRPLIEPRP | -0.042
108 | RRIRQRPPRLPRPRPRPLIPPRP | 0.114
109 | RRIRQRPPRLPRPRPRPLIYPRP | -0.457
110 | RRIRQRPPRLPRPRPRPLKIPRP | -0.141
111 | RRIRQRPPRLPRPRPRPLKMPRP | -0.269
112 | RRIRQRPPRLPRPRPRPLKTPRP | 0.0342
113 | RRIRQRPPRLPRPRPRPLLEPRP | 0.105
114 | RRIRQRPPRLPRPRPRPLLKPRP | -0.321
115 | RRIRQRPPRLPRPRPRPLMCPRP | -0.0972
116 | RRIRQRPPRLPRPRPRPLMDPRP | 0.0125
117 | RRIRQRPPRLPRPRPRPLMEPRP | -0.17
118 | RRIRQRPPRLPRPRPRPLMVPRP | -0.13
119 | RRIRQRPPRLPRPRPRPLNFPRP | -0.233
120 | RRIRQRPPRLPRPRPRPLNGPRP | -0.128
121 | RRIRQRPPRLPRPRPRPLNLPRP | -0.249
122 | RRIRQRPPRLPRPRPRPLQGPRP | 0.0512
123 | RRIRQRPPRLPRPRPRPLRRPRP | 2.24
124 | RRIRQRPPRLPRPRPRPLTAPRP | 0.0683
125 | RRIRQRPPRLPRPRPRPLVMPRP | -0.107

Row | Sequence | shrunken log2 fold change
126 | RRIRQRPPRLPRPRPRPLVNPRP | -0.0122
127 | RRIRQRPPRLPRPRPRPLVRPRP | 0.0989
128 | RRIRQRPPRLPRPRPRPLWMPRP | -0.165
129 | RRIRQRPPRLPRPRPRPLWSPRP | -0.147
130 | RRIRQRPPRLPRPRPRPLWTPRP | -0.042
131 | RRIRQRPPRLPRPRPRPLYAPRP | -0.399
132 | RRIRQRPPRLPRPRPRPLYHPRP | -0.283
133 | RRIRQRPPRLPRPRPRPLYWPRP | -0.11
134 | RRIRQRPPRLPRPRPRPMCEPRP | -0.00149
135 | RRIRQRPPRLPRPRPRPMDKPRP | 0.0321
136 | RRIRQRPPRLPRPRPRPMICPRP | 0.013
137 | RRIRQRPPRLPRPRPRPMILPRP | -0.109
138 | RRIRQRPPRLPRPRPRPMKAPRP | 0.181
139 | RRIRQRPPRLPRPRPRPMKLPRP | 0.00355
140 | RRIRQRPPRLPRPRPRPMKSPRP | 0.0232
141 | RRIRQRPPRLPRPRPRPMLEPRP | 0.0533
142 | RRIRQRPPRLPRPRPRPMMSPRP | -0.0325
143 | RRIRQRPPRLPRPRPRPMPGPRP | 0.0214
144 | RRIRQRPPRLPRPRPRPMQAPRP | 0.116
145 | RRIRQRPPRLPRPRPRPMQWPRP | 0.0039
146 | RRIRQRPPRLPRPRPRPMRNPRP | -0.0579
147 | RRIRQRPPRLPRPRPRPMTEPRP | -0.0192
148 | RRIRQRPPRLPRPRPRPMTGPRP | 0.0323
149 | RRIRQRPPRLPRPRPRPMVLPRP | 0.0309
150 | RRIRQRPPRLPRPRPRPMWMPRP | 0.0583

Source: the supplement of paper PMC9112550, “Optimization of the antimicrobial peptide Bac7 by deep mutational scanning” (BMC Biology, 2022)
